Among the data in patent publication US20110263827A1 (AbbVie / Abbott, published 2011) are EC50 values, retold here.

The target in one test is T1, DLL-4 (UniProt Q9NR61 27-524, limits assumed, biotinylated).
T1 construct: ELISA antigen
The test can be described thus: direct bind ELISA, N-term VD.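 Further: antibody or DVD-Ig preparations bound to immobilized target antigen on ELISA plates, 1 h at room temperature, TMB detection read as absorbance at 450 nm.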 For orientation: In an ELISA, binding on a coated surface is turned into a signal by an enzyme label.

The target of test [1] is T2, EGFR (UniProt P00533 25-645, limits assumed, biotinylated).
T2 construct: ELISA antigen; construct not described
The test can be described thus: direct bind ELISA, C-term VD.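 Further: ELISA with antibody or DVD-Ig preparations applied to target antigen-coated plates for 1 h at room temperature, TMB colour development, absorbance read at 450 nm.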

In test [2] the target is T2, EGFR. Nature of the test: direct bind ELISA, N-term VD.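 Further: antibody or DVD-Ig preparations bound to immobilized target antigen on ELISA plates, 1 h at room temperature, TMB detection read as absorbance at 450 nm.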
The target of another test is T3, PLGF (UniProt P49763-2 21-149, limits assumed, biotinylated).
T3 construct: ELISA antigen; also called P1GF
T3 sequence (looked up): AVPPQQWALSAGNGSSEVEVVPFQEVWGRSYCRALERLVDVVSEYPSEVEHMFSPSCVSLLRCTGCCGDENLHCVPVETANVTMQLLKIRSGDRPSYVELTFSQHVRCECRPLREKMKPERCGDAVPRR
Nature of the test: direct bind ELISA, C-term VD.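 Further: ELISA with antibody or DVD-Ig preparations applied to target antigen-coated plates for 1 h at room temperature, TMB colour development, absorbance read at 450 nm.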

B1: DVD340 (bispecific antibody)
VH: EVQLVESGGGLVQPGGSLRLSCAASGFTFTDNWISWVRQAPGKGLEWVGYISPNSGFTYYADSVKGRFTISADTSKNTAYLQMNSLRAEDTAVYYCARDNFGGYFDYWGQGTLVTVSSASTKGPQVQLQESGPGLVKPSQTLSLTCTVSGYSISSDFAWNWIRQPPGKGLEWMGYISYSGNTRYQPSLKSRITISRDTSKNQFFLKLNSVTAADTATYYCVTAGRGFPYWGQGTLVTVSS
VL: DIQMTQSPSSLSASVGDRVTITCRASQDVSTAVAWYQQKPGKAPKLLIYSASFLYSGVPSRFSGSGSGTDFTLTISSLQPEDFATTYYCQQSYTGTVTFGQGTKVEIKRTVAAPDIQMTQSPSSMSVSVGDRVTITCHSSQDINSNIGWLQQKPGKSFKGLIYHGTNLDDGVPSRFSGSGSGTDYTLTISSLQPEDFATYYCVQYAQFPWTFGGGTKLEIKR
notes: DVD-Ig; HC S, LC S; variable parts only
As a reminder, the EC50 is the concentration at which the effect is half-maximal. A high value points to lower potency in that assay. Consider B1, for which the EC50 in the test with DLL-4 came out at 0.32 nM; in the test with EGFR [1], 189 nM.

B2: DVD341 (bispecific antibody)
VH: QVQLQESGPGLVKPSQTLSLTCTVSGYSISSDFAWNWIRQPPGKGLEWMGYISYSGNTRYQPSLKSRITISRDTSKNQFFLKLNSVTAADTATYYCVTAGRGFPYWGQGTLVTVSSASTKGPQVQLQQSGAELVKPGASVKISCKASGYTFTDYYINWVKLAPGQGLEWIGWIYPGSGNTKYNEKFKGKATLTIDTSSSTAYMQLSSLTSEDTAVYFCVRDSPFFDYWGQGTLLTVSS
VL: DIQMTQSPSSMSVSVGDRVTITCHSSQDINSNIGWLQQKPGKSFKGLIYHGTNLDDGVPSRFSGSGSGTDYTLTISSLQPEDFATYYCVQYAQFPWTFGGGTKLEIKRTVAAPDIVLTQSPDSLAVSLGERVTMNCKSSQSLLNSGMRKSFLAWYQQKPGQSPKLLIYWASTRESGVPDRFTGSGSGTDFTLTISSVQAEDVAVYYCKQSYHLFTFGSGTKLEIKR
notes: as for B1
Turning to B2, the results for the EC50 with EGFR [2] and with PLGF were 3.41 nM and 0.74 nM, respectively.

B3: DVD783 (bispecific antibody)
VH: QVQLQESGPGLVKPSQTLSLTCTVSGYSISSDFAWNWIRQPPGKGLEWMGYISYSGNTRYQPSLKSRITISRDTSKNQFFLKLNSVTAADTATYYCVTAGRGFPYWGQGTLVTVSSASTKGPSVFPLAPQVQLQQSGAELVKPGASVKISCKASGYTFTDYYINWVKLAPGQGLEWIGWIYPGSGNTKYNEKFKGKATLTIDTSSSTAYMQLSSLTSEDTAVYFCVRDSPFFDYWGQGTLLTVSS
VL: DIQMTQSPSSMSVSVGDRVTITCHSSQDINSNIGWLQQKPGKSFKGLIYHGTNLDDGVPSRFSGSGSGTDYTLTISSLQPEDFATYYCVQYAQFPWTFGGGTKLEIKRTVAAPSVFIFPPDIVLTQSPDSLAVSLGERVTMNCKSSQSLLNSGMRKSFLAWYQQKPGQSPKLLIYWASTRESGVPDRFTGSGSGTDFTLTISSVQAEDVAVYYCKQSYHLFTFGSGTKLEIKR
notes: DVD-Ig; HC L, LC L; variable parts only
As for B3, the EC50 was found to be 3.88 nM with EGFR [2] and 0.36 nM with PLGF.

B4: DVD843 (bispecific antibody)
VH: QVQLQESGPGLVKPSQTLSLTCTVSGYSISSDFAWNWIRQPPGKGLEWMGYISYSGNTRYQPSLKSRITISRDTSKNQFFLKLNSVTAADTATYYCVTAGRGFPYWGQGTLVTVSSASTKGPQVQLQQSGAELVKPGASVKISCKASGYTFTDYYINWVKLAPGQGLEWIGWIYPGSGNTKYNEKFKGKATLTIDTSSSTAYMQLSSLTSEDTAVYFCVRDSPFFDYWGQGTLLTVSS
VL: DIQMTQSPSSMSVSVGDRVTITCHSSQDINSNIGWLQQKPGKSFKGLIYHGTNLDDGVPSRFSGSGSGTDYTLTISSLQPEDFATYYCVQYAQFPWTFGGGTKLEIKRTVAAPSVFIFPPDIVLTQSPDSLAVSLGERVTMNCKSSQSLLNSGMRKSFLAWYQQKPGQSPKLLIYWASTRESGVPDRFTGSGSGTDFTLTISSVQAEDVAVYYCKQSYHLFTFGSGTKLEIKR
notes: DVD-Ig; HC S, LC L; variable parts only
Turning to B4, the EC50 in the test with EGFR [2] came out at 3.65 nM; with PLGF it was 0.37 nM.

B5: DVD813 (bispecific antibody)
VH: QVQLQESGPGLVKPSQTLSLTCTVSGYSISSDFAWNWIRQPPGKGLEWMGYISYSGNTRYQPSLKSRITISRDTSKNQFFLKLNSVTAADTATYYCVTAGRGFPYWGQGTLVTVSSASTKGPSVFPLAPQVQLQQSGAELVKPGASVKISCKASGYTFTDYYINWVKLAPGQGLEWIGWIYPGSGNTKYNEKFKGKATLTIDTSSSTAYMQLSSLTSEDTAVYFCVRDSPFFDYWGQGTLLTVSS
VL: DIQMTQSPSSMSVSVGDRVTITCHSSQDINSNIGWLQQKPGKSFKGLIYHGTNLDDGVPSRFSGSGSGTDYTLTISSLQPEDFATYYCVQYAQFPWTFGGGTKLEIKRTVAAPDIVLTQSPDSLAVSLGERVTMNCKSSQSLLNSGMRKSFLAWYQQKPGQSPKLLIYWASTRESGVPDRFTGSGSGTDFTLTISSVQAEDVAVYYCKQSYHLFTFGSGTKLEIKR
notes: DVD-Ig; HC L, LC S; variable parts only
Take B5: the EC50 is 3.41 nM with EGFR [2] and 0.44 nM with PLGF.

B6: DVD782 (bispecific antibody)
VH: EVQLVESGGGLVQPGGSLRLSCAASGFTFTDNWISWVRQAPGKGLEWVGYISPNSGFTYYADSVKGRFTISADTSKNTAYLQMNSLRAEDTAVYYCARDNFGGYFDYWGQGTLVTVSSASTKGPSVFPLAPQVQLQESGPGLVKPSQTLSLTCTVSGYSISSDFAWNWIRQPPGKGLEWMGYISYSGNTRYQPSLKSRITISRDTSKNQFFLKLNSVTAADTATYYCVTAGRGFPYWGQGTLVTVSS
VL: DIQMTQSPSSLSASVGDRVTITCRASQDVSTAVAWYQQKPGKAPKLLIYSASFLYSGVPSRFSGSGSGTDFTLTISSLQPEDFATTYYCQQSYTGTVTFGQGTKVEIKRTVAAPSVFIFPPDIQMTQSPSSMSVSVGDRVTITCHSSQDINSNIGWLQQKPGKSFKGLIYHGTNLDDGVPSRFSGSGSGTDYTLTISSLQPEDFATYYCVQYAQFPWTFGGGTKLEIKR
notes: as for B3
Turning to B6, the EC50 was found to be 0.37 nM in the test with DLL-4 and 55.2 nM with EGFR [1].

B7: DVD842 (bispecific antibody)
VH: EVQLVESGGGLVQPGGSLRLSCAASGFTFTDNWISWVRQAPGKGLEWVGYISPNSGFTYYADSVKGRFTISADTSKNTAYLQMNSLRAEDTAVYYCARDNFGGYFDYWGQGTLVTVSSASTKGPQVQLQESGPGLVKPSQTLSLTCTVSGYSISSDFAWNWIRQPPGKGLEWMGYISYSGNTRYQPSLKSRITISRDTSKNQFFLKLNSVTAADTATYYCVTAGRGFPYWGQGTLVTVSS
VL: DIQMTQSPSSLSASVGDRVTITCRASQDVSTAVAWYQQKPGKAPKLLIYSASFLYSGVPSRFSGSGSGTDFTLTISSLQPEDFATTYYCQQSYTGTVTFGQGTKVEIKRTVAAPSVFIFPPDIQMTQSPSSMSVSVGDRVTITCHSSQDINSNIGWLQQKPGKSFKGLIYHGTNLDDGVPSRFSGSGSGTDYTLTISSLQPEDFATYYCVQYAQFPWTFGGGTKLEIKR
notes: as for B4
As for B7, the EC50 was determined as 0.36 nM with DLL-4 and 51.7 nM with EGFR [1].

B8: DVD812 (bispecific antibody)
VH: EVQLVESGGGLVQPGGSLRLSCAASGFTFTDNWISWVRQAPGKGLEWVGYISPNSGFTYYADSVKGRFTISADTSKNTAYLQMNSLRAEDTAVYYCARDNFGGYFDYWGQGTLVTVSSASTKGPSVFPLAPQVQLQESGPGLVKPSQTLSLTCTVSGYSISSDFAWNWIRQPPGKGLEWMGYISYSGNTRYQPSLKSRITISRDTSKNQFFLKLNSVTAADTATYYCVTAGRGFPYWGQGTLVTVSS
VL: DIQMTQSPSSLSASVGDRVTITCRASQDVSTAVAWYQQKPGKAPKLLIYSASFLYSGVPSRFSGSGSGTDFTLTISSLQPEDFATTYYCQQSYTGTVTFGQGTKVEIKRTVAAPDIQMTQSPSSMSVSVGDRVTITCHSSQDINSNIGWLQQKPGKSFKGLIYHGTNLDDGVPSRFSGSGSGTDYTLTISSLQPEDFATYYCVQYAQFPWTFGGGTKLEIKR
notes: as for B5
As for B8, the EC50 in the test with DLL-4 came to 0.39 nM; with EGFR [1], 77.3 nM.
